These results are taken from PMC3299919.

For this data set, the target named is Nucleocapsid protein N (Rift Valley fever virus (strain M12)) (UniProt P21700). In words: FP competition. Conditions: 10 mM HEPES pH 7.3 ([…]) or pH 8 ([…].

pKi: −log10 of the molar value.

UniProt P21700, sequence (P21700 whole entry): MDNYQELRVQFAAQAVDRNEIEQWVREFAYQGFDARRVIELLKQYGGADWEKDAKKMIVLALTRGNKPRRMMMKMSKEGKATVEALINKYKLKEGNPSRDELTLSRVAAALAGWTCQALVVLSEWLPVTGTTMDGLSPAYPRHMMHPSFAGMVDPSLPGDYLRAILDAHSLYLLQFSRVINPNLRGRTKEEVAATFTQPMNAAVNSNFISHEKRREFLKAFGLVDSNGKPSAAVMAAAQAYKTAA

Usually pKi stands for −log10 of the Ki, conventionally taken in molar units. High values mean a small Ki, low ones a large Ki. Consider “CGUCCCGUAGUGUCGGUACUGAUUGAUGUG [MBE15.3]”, for which the negative logarithm of the Ki (pKi) is 6.70.
